The results in this text go back to patent publication US20250243271A1 (ALCEA THERAPEUTICS, published 2025).

T1: Recombinant human Notch4 (human, UniProt Q99466 24-1447, limits assumed)
T1 construct: also called Notch4 analyte; Notch4 (antigen)
T1 sequence: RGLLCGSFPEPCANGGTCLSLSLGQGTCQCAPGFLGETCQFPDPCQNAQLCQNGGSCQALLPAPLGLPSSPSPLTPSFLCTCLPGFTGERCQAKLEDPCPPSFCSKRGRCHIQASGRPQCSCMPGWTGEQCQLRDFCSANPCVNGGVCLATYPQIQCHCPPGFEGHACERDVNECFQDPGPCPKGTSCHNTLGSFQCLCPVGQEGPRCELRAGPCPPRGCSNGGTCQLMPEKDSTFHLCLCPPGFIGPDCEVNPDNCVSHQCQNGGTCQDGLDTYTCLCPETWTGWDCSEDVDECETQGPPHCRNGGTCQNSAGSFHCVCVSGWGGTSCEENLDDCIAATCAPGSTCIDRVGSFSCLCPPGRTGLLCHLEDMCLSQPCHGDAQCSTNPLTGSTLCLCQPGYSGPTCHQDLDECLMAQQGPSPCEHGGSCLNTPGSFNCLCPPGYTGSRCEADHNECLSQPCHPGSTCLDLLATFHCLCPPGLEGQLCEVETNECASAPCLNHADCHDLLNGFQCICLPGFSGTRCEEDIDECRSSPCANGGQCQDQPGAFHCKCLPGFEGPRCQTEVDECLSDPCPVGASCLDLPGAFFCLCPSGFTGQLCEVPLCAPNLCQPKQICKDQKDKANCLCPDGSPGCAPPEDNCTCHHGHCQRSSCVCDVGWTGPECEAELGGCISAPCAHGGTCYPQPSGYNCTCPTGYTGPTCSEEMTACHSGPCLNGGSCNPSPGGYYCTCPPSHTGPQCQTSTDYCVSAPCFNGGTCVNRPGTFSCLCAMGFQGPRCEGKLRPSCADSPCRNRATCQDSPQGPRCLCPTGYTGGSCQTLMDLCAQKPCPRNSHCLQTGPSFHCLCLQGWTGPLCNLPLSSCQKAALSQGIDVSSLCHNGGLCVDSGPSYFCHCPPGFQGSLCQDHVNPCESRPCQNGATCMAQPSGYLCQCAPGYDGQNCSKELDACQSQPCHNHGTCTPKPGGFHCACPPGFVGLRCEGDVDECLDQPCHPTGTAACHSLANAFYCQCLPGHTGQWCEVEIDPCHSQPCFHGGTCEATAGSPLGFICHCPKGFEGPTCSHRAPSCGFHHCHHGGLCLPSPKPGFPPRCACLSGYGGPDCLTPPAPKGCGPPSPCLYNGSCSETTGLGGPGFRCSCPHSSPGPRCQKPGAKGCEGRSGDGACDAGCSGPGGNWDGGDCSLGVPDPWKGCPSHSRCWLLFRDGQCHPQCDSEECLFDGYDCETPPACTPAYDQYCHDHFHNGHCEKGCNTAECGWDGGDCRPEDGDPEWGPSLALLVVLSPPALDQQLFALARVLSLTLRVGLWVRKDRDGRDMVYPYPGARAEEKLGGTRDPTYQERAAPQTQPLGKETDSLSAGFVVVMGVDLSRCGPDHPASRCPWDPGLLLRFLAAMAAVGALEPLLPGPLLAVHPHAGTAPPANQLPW

B1: iggrefmat 1-29 (antibody, V domains shown)
VH: QVQLVQSGAEVKKPGASVKVSCKVSRGTFSTYAIHWVRQAPGKGLEWMGGINAATGYTIYAQKFQGRVTMTEDTSTDTAYMELSSLKSEDTAVYYCVRSVGSIEYWGQGTLVTVSS
VL: DIQMTQSPSSVSASVGDRVTITCRASQGISNHLAWYQQKPGKAPKLLIYGASSRQSGVPSRFSGSGSGTDFTLTISSLQPEDFANYYCLHDRYPYTFGGGTKVEIK
notes: Tested as an antibody captured by anti-human IgG Fc; also called C01-Lib1-Pl1
B2: iggrefmat 3-4 (antibody, V domains shown)
VH: EVQLVQSGAEVKKPGASVKVSCKASGYTFSDHYISWVRQAPGQGLEWMGWMNPTSGHTNYAQKLQGRGTMTTDPSTSTAYMELRSLRSDDTAVYYCARVSGRWLPAVDGHYYYYYGMDVWGQGTTVTVSS
VL: ESALTQPASVSGSPGQSITISCTGTGSNIGAGYGVSWYQQHPGKAPKLMIYANINRPPGVSNRFSGSKSGNTASLTISGLQAEDEADYYCSSYTSSSWMFGGGTKLTVL
notes: Tested as an antibody captured by anti-human IgG Fc; also called D11-Lib4-Pl1
B3: iggrefmat 3-11 (antibody, V domains shown)
VH: EVQLVQSGAEVKKPGASVKVSCKASGYTFATYPISWVRQAPGQGLEWMGGMNPTTGDTIYAQKLQGRGTMTTDPSTSTAYMELRSLRSDDTAVYYCARGDRAWFDPWGQGTLVTVSS
VL: ESALTQPASVSGSPGQSITISCTGTGSNIGAGYGVSWYQQHPGKAPKLMIYANINRPPGVSNRFSGSKSGNTASLTISGLQAEDEADYYCSSYTSSSWMFGGGTKLTVL
notes: Tested as an antibody captured by anti-human IgG Fc; also called H03-Lib6-Pl2
B4: iggrefmat 2-12 (antibody, V domains shown)
VH: EVQLVESGGGLVQPGGSLRLSCAASGFSFGTYSMSWVRQAPGKGLELVASIDTAGTPYYPDSVKGRFTISRDNAKNSLYLQMNSLRAEDTAVYYCARSYSGYDPYDAFDIWGQGTMVTVSS
VL: DIVMTQSPLSLPVTPGEPASISCRSSRSLVHGSGDNYLHWYLQKPGQSPQLLIYDASNRFSGVPDRFSGSGSGTDFTLKISRVEAEDVGVYYCAQTLQIPLTFGGGTKVEIK
notes: Tested as an antibody captured by anti-human IgG Fc; also called E08-Lib3-Pl1
B5: C03-Lib1-Pl1 (antibody, V domains shown)
VH: QVQLVQSGAEVKKPGASVKVSCKVSGYTFTDLPIHWVRQAPGKGLEWMGGINPHSGDAIYAQKFQGRVTMTEDTSTDTAYMELSSLKSEDTAVYYCTTVIAVAGSNDSRPCGRSYLCVLDYWGQGTLVTVSS
VL: DIQMTQSPSSVSASVGDRVTITCNASQGIGHSLAWYQQKPGKAPKLLIYGATSRATGVPSRFSGSGSGTDFTLTISSLQPEDFANYYCLQDYIYPFTFGGGTKVEIK
notes: Tested as an antibody captured by anti-human IgG Fc
B6: iggrefmat 1-34 (antibody, V domains shown)
VH: QVQLVQSGAEVKKPGASVKVSCKVSGYTLTKSSIHWVRQAPGKGLEWMGGINPSAGTRIYAQKFQGRVTMTEDTSTDTAYMELSSLKSEDTAVYYCVRGSNPNVWGKGTTVTVSS
VL: DIQMTQSPSSVSASVGDRVTITCRASQTIGNYLAWYQQKPGKAPKLLIYKASTLASGVPSRFSGSGSGTDFTLTISSLQPEDFANYYCQQYNFYPRTFGGGTKVEIK
notes: as for B5
B7: iggrefmat 6-28 (antibody, V domains shown)
VH: EVQLVESGGGLVQPGRSLRLSCAASGFSFSDYHMHWVRQAPGKGLEWVGAISGSAYTTDYADSVEGRFTISRDNAKNSLYLQMNSLRAEDTAVYYCARDDYNKDGFDPWGQGTLVTVSS
VL: DIQMTQSPSSLSASVGDRVTITCRASQSIYSYLAWYQQKPGKAPKLLIYDASRLQSGVPSRFSGSGSGTDFTLTISSLQPEDVATYYCQQGYRSPITFGGGTKVEIK
notes: Tested as an antibody captured by anti-human IgG Fc; also called E03-Lib8H1N4
B8: iggrefmat 2-16 (antibody, V domains shown)
VH: QVQLVESGGGLVQPGGSLRLSCAASGLTFSGSAMSWVRQAPGKGLELVASITGSGTRTYYPDSVKGRFTISRDNAKNSLYLQMNSLRAEDTAVYYCARGLHAFDIWGQGTMVTVSS
VL: DIVMTQSPLSLPVTPGEPASISCRSSQSLLSSYGYHNLHWYLQKPGQSPQLLIYMGYNRASGVPDRFSGSGSGTDFTLKISRVEAEDVGVYYCMQGMHLPITFGGGTKVEIK
notes: Tested as an antibody captured by anti-human IgG Fc; also called C07-Lib3-Pl1
B9: iggrefmat 1-12 (antibody, V domains shown)
VH: QVQLVQSGAEVKKPGASVKVSCKVSGYPFSNYAIHWVRQAPGKGLEWMGGISPYTGKTIYAQKFQGRVTMTEDTSTDTAYMELSSLKSEDTAVYYCAFSRYYYDSSGYHGDAFDIWGQGTMVTVSS
VL: DIQMTQSPSSVSASVGDRVTITCRASQGISNHLAWYQQKPGKAPKLLIYDASNRATGVPSRFSGSGSGTDFTLTISSLQPEDFANYYCQQSFTIPSFGGGTKVEIK
notes: Tested as an antibody captured by anti-human IgG Fc; also called C02-Lib1_Pl1
B10: iggrefmat 3-13 (antibody, V domains shown)
VH: EVQLVQSGAEVKKPGASVKVSCKASGFPFSTSAISWVRQAPGQGLEWMGWMDPATGQTNYAQKLQGRGTMTTDPSTSTAYMELRSLRSDDTAVYYCARALRYCSGGRCQGFHGMDVWGQGTTVTVSS
VL: ESALTQPASVSGSPGQSITISCTGTNIAAKSVSWYQQHPGKAPKLMIYANINRPPGVSNRFSGSKSGNTASLTISGLQAEDEADYYCSSYTSSSWMFGGGTKLTVL
notes: Tested as an antibody captured by anti-human IgG Fc; also called C11-Lib4-Pl1
B11: G05-Lib3-Pl1 (antibody, V domains shown)
VH: EVQLVESGGGLVQPGGSLRLSCAASGFTFSDYSMSWVRQAPGKGLELVASISESGHDTYYPDSVKGRFTISRDNAKNSLYLQMNSLRAEDTAVYYCARGIAVAGTRAFDIWGQGTMVTVSS
VL: DIVMTQSPLSLPVTPGEPASISCRSSQSLLYSTGYNYLHWYLQKPGQSPQLLIYMGSYRASGVPDRFSGSGSGTDFTLKISRVEAEDVGVYYCMQALPTPPITFGGGTKVEIK
notes: as for B5
B12: C08-Lib3-Pl1 (antibody, V domains shown)
VH: EVQLVESGGGLVQPGGSLRLSCAASGLPFSSYGMSWVRQAPGKGLELVASIGTSGTRTYYPDSVKGRFTISRDNAKNSLYLQMNSLRAEDTAVYYCARLGEGSGWSYFDYWGQGTLVTVSS
VL: DIVMTQSPLSLPVTPGEPASISCRSSQSLLHSTGYNYLHWYLQKPGQSPQLLIYSGSYRASGVPDRFSGSGSGTDFTLKISRVEAEDVGVYYCQQGYSTPHTFGGGTKVEIK
notes: as for B5
B13: B07-Lib3-Pl1 (antibody, V domains shown)
VH: EVQLVESGGGLVQPGGSLRLSCAASGFTLDNYVMSWVRQAPGKGLELVASISGSSADTYYPDSVKGRFTISRDNAKNSLYLQMNSLRAEDTAVYYCAKGIAAGYGMDVWGQGTTVTVSS
VL: DIVMTQSPLSLPVTPGEPASISCRSSQSLLHSSGYTYLHWYLQKPGQSPQLLIYATSYRAPGVPDRFSGSGSGTDFTLKISRVEAEDVGVYYCMQATHPYTFGGGTKVEIK
notes: as for B5
B14: iggrefmat 6-16 (antibody, V domains shown)
VH: EVQLVESGGGLVQPGRSLRLSCAASEFSFSRFDMHWVRQAPGKGLEWVSAISSSGSYKDYADSVEGRFTISRDNAKNSLYLQMNSLRAEDTAVYYCAREAYGDYGKPFDYWGQGTLVTVSS
VL: DIQMTQSPSSLSASVGDRVTITCRASQSISRNLAWYQQKPGKAPKLLIYAGSTLQRGVPSRFSGSGSGTDFTLTISSLQPEDVATYYCLQANMYPLTFGGGTKV
notes: as for B5
B15: G04-Lib6-Pl2 (antibody, V domains shown)
VH: EVQLVQSGAEVKKPGASVKVSCKASGYSFTKSGIHWVRQAPGQGLEWMGWINPRTGNINYAQKLQGRGTMTTDPSTSTAYMELRSLRSDDTAVYYCARTHLGSSSSPPGYYYGMDVWGQGTTVTVSS
VL: ESALTQPASVSGSPGQSITISCTGTNIGAKAVSWYQQHPGKAPKLMIYAENKRPSGVSNRFSGSKSGNTASLTISGLQAEDEADYYCQAWDNRAILFGGGTKLTVL
notes: as for B5

This test addresses T1, Recombinant human Notch4. Nature of the test: SPR, antibody captured by anti-human IgG Fc on HC30M chip, Notch4 as analyte. Here is the method:
Binding kinetics measurements. Following expression and purification, clones were characterized using surface plasmon resonance (SPR) to determine binding kinetics and epitope binding activity. HC30M chips (polycarboxylate hydrogel surfaces having medium charge density and 30 nm coating thickness) were coated with anti-human Fc antibodies (unlabeled goat anti-human IgG Fc from Southern Biotech) to capture the candidate antibodies. Candidate antibodies were diluted to 10 μg/mL in HEPES-buffered saline Tris-EDTA (HBSTE)) and exposed to the surfaces for 15 minutes. After stabilizing baseline using HBSTE, Notch4 analytes were injected sequentially from a lowest concentration of 0.41 nM to a highest concentration of 300 nM. (Notch4 was diluted in HBSTE+0.5 mg/mL bovine serum albumin (BSA) to obtain a series of 3-fold dilutions.) To assess specificity, experiments were also run using Notch2 as an analyte in a single injection at 100 nM in HBSTE+0.5 mg/mL.
Turning to B1, the Kd turned out to be 6.1 nM.

As for B2, the Kd was 2.6 nM.

As to B3, the dissociation constant (Kd) turned out to be 0.92 nM.

With B4, the Kd was determined as 5.6 nM.

For B5, the Kd was determined as 5.3 nM.

As for B6, the Kd was found to be 1.5 nM.

In the case of B7, the Kd stood at 3.4 nM.

Take B8: the Kd came out at 1.5 nM.

For B9, the Kd is 1.5 nM.

Take B10: the Kd came out at 2.5 nM.

With B11, the Kd worked out at 0.89 nM.

As to B12, the Kd stood at 0.41 nM.

For the molecule B13, the Kd is 5 nM.

As for B14, the Kd was 0.38 nM.

For the molecule B15, the Kd came out at 1.6 nM.
